In this assay the target is SARS-CoV-2 (2019-nCoV) Spike Protein (S1+S2 ECD, His tag) (Sino Biological, 40589-V08B1) (SARS-CoV-2), P0DTC2. As to conditions: remark: other sources report otherwise.

Two molecules from patent US20230417748A1 can be followed below.

Several values for one entry are separate records, joined by “and”; a condition that tells them apart may be missing. Equal values may be shown once.

B1: clone 6D9 (antibody, V domains shown)
VH: EVQLVESGGGLVQPGGSLRLSCAASGFTFTDYDMGWVRQAPGKGPEWVSLISGDSGNTWYDDSVKGRFTISRDNSKNTLYLQMNSLRAEDTAVYYCAKYRGTTKDYWGQGTLVTVSS
On to B1, for which the O.D. was 0.997 O.D. and 0.991 O.D.

B2: clone 5E9 (antibody, V domains shown)
VH: EVQLVESGGGLVQPGGSLRLSCAASGFTFTTYDMGWVRQAPGKGPEWVSLISSGGSNTWYDDSVKGRFTISRDNSKNTLYLQMNSLRAEDTAVYYCAKEKYPYSDCDYWGQGTLVTVSS
As for B2, the O.D. is 0.892 O.D. and 0.904 O.D.
